# Experimental data published in US20160264953A1.
# How the values were obtained:
# [1] = molecular target: mannose-6-phosphate receptor; test: relative binding to mannose-6-phosphate receptor; method not given
# [2] = molecular target: mannose-6-phosphate receptor; test: relative binding to mannose-6-phosphate receptor (Fabrazyme = 100); method not given
Molecule,Binding to M6Pr (%) [1],Binding to M6Pr (%) [2]
Fabrazyme® (from UniProt P06280 32-429) (enzyme),100%,–
"recombinant human α-galactosidase-A protein provided herein (FZ2G) (enzyme, N-linked oligosaccharides (including mannose-6-phosphate and bis-mannose-6-phosphate oligosaccharides) at Asn108, Asn161 and Asn184) LDNGLARTPTMGWLHWERFMCNLDCQEEPDSCISEKLFMEMAELMVSEGWKDAGYEYLCIDDCWMAPQRDSEGRLQADPQRFPHGIRQLANYVHSKGLKLGIYADVGNKTCAGFPGSFGYYDIDAQTFADWGVDLLKFDGCYCDSLENLADGYKHMSLALNRTGRSIVYSCEWPLYMWPFQKPNYTEIRQYCNHWRNFADIDDSWKSIKSILDWTSFNQERIVDVAGPGGWNDPDMLVIGNFGLSWNQQVTQMALWAIMAAPLFMSNDLRHISPQAKALLQDKDVIAINQDPLGKQGYQLRQGDNFEVWERPLSGLAWAVAMINRQEIGGPRSYTIAVASLGKGVACNPACFITQLLPVKRKLGFYEWTSRLRSHINPTGTVLLQLENTMQMSLKDLL",–,130%
